Patent US20060272039
Substitutions are numbered along the chain they refer to.

B1: Xpress-tagged JNK-1 (protein)
chain: MEERLSTTSSYPSHPGRSVEEDHNTLLASSSISSIIRGTRGHLNNFIESVGNWLVPSSSGRDDDAVSLDSCQSVYSPVRHHINSGTGGGILMEPSSIHVPENYYSVTIGEAQMVVLKRYQNLRLIGSGAQGIVCSAFDTVRNEQVAIKKLSRPFQNVTHAKRAYRELKLMSLVNHKNIIGILNCFTPQKKLDEFNDLYIVMELMDANLCQVIQMDLDHERLSYLLYQMLCGIRHLHSAGIIHRDLKPSNIVVRSDCTLKILDFGLARTAIEAFMMTPYVVTRYYRAPEVILGMGYKENVDVWSIGCIFGELIRGRVLFPGGDHIDQWTRIIEQLGTPDRSFLERLQPTVRNYVENRPRYQATPFEVLFSDNMFPMTADSSRLTGAQARDLLSRMLVIDPERRISVDDALRHPYVNVWFDEIEVYAPPPLPYDHNMDVEQNVDSWREHIFRELTDYARTHDIYS
B2: kinase-dead JNK-1 (APF) (protein)
chain: B1 chain with T276A, Y278F

Legend:
[1] = target: His-DAF-16 (C-terminal fragment), O16850
[2] = target: His-DAF-16 (N-terminal fragment), O16850
His-DAF-16 (N-terminal fragment), O16850, sequence (O16850 whole entry, looked up, the tested form may be a part): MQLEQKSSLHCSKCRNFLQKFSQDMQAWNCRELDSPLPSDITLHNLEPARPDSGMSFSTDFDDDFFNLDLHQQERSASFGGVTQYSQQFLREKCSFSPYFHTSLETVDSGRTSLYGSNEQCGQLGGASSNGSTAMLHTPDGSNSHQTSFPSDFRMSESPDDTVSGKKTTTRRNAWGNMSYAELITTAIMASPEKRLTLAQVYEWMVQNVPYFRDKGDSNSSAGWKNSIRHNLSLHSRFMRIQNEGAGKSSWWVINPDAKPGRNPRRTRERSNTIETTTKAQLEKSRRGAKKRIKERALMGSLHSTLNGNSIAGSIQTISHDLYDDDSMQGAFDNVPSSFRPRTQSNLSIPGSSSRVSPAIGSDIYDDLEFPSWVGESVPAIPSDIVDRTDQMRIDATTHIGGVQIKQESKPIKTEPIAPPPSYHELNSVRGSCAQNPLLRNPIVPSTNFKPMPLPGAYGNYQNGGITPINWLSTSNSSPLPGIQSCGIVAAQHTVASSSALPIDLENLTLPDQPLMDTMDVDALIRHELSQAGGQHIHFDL

His-DAF-16 (C-terminal fragment), O16850, sequence (O16850 whole entry, looked up, the tested form may be a part): as above
GST-c-Jun (1-79), sequence (P05412 1-79): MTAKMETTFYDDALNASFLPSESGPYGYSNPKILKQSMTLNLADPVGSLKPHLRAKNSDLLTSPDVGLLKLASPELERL

| Protein | in vitro kinase assay (phosphorylation, [γ-32P]ATP, autoradiography) [1] | in vitro kinase assay (phosphorylation, [γ-32P]ATP, autoradiography) (GST-c-Jun (1-79)) | in vitro kinase assay (phosphorylation, [γ-32P]ATP, autoradiography) [2] |
| --- | --- | --- | --- |
| B1 | The phosphorylation was only observed with the N-terminal (83-307) fragment of DAF-16, but not with the C-terminal (255-470) fragment (data not shown) | JNK-1 phosphorylates DAF-16 as well as the mammalian c-Jun protein used as a positive control | Upon activation of JNK-1 by UV, JNK-1 phosphorylates DAF-16 |
| B2 | – | – | The kinase-dead JNK-1 (APF) failed to phosphorylate DAF-16 |
